For this series, the target named is CSL (RBPJ) (Mus musculus) (UniProt P31266). The series is described as follows: ITC. The note with it: text: measurable, albeit weak, binding; ITC: 50 mM sodium phosphate pH 6.5, 150 mM NaCl, 10 C (10 uM CSL in cell, 100 uM DNA in syringe). EMSA: 150 mM KCl, 50 mM Tris pH 7.4, 1 mM DTT, 2% polyvinyl …. (In general: A gel shift assay detects complexes by their altered migration in electrophoresis.)

Bounds are passed on as bounds.

Sequence of CSL (RBPJ) (Mus musculus) (P31266 53-474): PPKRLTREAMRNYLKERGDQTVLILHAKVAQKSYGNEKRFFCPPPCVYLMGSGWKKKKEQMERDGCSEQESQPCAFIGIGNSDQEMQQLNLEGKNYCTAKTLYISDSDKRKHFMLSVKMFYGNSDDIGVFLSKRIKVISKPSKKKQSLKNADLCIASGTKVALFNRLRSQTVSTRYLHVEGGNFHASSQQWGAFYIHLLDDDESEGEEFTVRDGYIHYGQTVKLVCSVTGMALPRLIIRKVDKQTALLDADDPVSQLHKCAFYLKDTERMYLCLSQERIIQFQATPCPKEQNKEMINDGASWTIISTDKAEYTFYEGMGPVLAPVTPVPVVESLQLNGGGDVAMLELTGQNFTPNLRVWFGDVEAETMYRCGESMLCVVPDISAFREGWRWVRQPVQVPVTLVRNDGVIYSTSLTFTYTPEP

As to ITC duplex CGTGAAAA, the Kd was over 50 µM.

The term Kd denotes the constant that tells how readily two partners part at equilibrium.

The record behind these values is article PMC4176381.
